# Reference: patent US20240035008
# Tested on: R2Tg (Taeniopygia guttata)
# Assay: cell_activity
# Conditions: homology-guided insertion without Cas9; RLE and RT dependent (Example 10 reports ~0.5%)
sequence,measurement,value
TCCTGAGTCGTGCTGCGTCGACAACGGTAGTGACGCGTATTGCCTGGAGGGCGGACGCCGGCATTCGCCGCGTGGTTCCCAGCGACCTGTATCCCCTCGT (double strand) [NOLC1 target (homology arms)],activity,0.1%
